Reference: publication PMC6727974 (Nature microbiology, 2018)

T1: EV-D68 capsid protein VP3 (strain STL-2014-12) (Enterovirus D68, STL-2014-12 (KM881710), strain)
T1 chain: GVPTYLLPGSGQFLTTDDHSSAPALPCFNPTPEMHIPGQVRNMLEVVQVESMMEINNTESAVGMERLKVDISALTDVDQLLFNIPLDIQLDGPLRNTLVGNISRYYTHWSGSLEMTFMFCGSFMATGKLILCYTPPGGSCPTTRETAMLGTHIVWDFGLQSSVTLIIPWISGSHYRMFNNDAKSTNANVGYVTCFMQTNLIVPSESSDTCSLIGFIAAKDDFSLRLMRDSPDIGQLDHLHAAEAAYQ

T2: EV-D68 capsid protein VP2 (strain STL-2014-12) (Enterovirus D68, STL-2014-12 (KM881710), strain)
T2 chain: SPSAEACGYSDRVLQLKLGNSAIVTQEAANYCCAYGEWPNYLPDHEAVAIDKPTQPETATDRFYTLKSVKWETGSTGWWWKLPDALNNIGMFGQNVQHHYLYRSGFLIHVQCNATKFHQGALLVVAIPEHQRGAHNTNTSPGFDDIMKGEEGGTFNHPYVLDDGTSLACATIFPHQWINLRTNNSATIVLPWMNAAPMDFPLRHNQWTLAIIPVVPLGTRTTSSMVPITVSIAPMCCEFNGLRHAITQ

T3: EV-D68 capsid protein VP1 (strain STL-2014-12) (Enterovirus D68, STL-2014-12 (KM881710), strain)
T3 chain: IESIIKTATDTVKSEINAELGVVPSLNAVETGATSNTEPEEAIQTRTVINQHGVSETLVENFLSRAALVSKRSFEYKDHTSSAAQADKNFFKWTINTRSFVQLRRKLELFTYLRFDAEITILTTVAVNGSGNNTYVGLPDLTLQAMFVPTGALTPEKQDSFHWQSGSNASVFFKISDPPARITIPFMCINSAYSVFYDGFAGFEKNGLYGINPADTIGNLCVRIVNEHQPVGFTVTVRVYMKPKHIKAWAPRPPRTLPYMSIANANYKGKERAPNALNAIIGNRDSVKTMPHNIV


Assays:
[1] = target: T4, EV-D68 procapsid (strain STL-2014-12) (Enterovirus D68, STL-2014-12 (KM881710), UniProt A0A097F8Q2;PDB, strain); assay: cryoEM with 2D classification
[2] = target: EV-D68 A-particle (strain STL-2014-12) (Enterovirus D68, STL-2014-12 (KM881710), strain); assay: cryo-EM structure
[3] = target: T1, EV-D68 capsid protein VP3 (strain …); assay: cryo-EM structure
[4] = target: T2, EV-D68 capsid protein VP2 (strain …); assay: cryo-EM structure
[5] = target: T3, EV-D68 capsid protein VP1 (strain …); assay: cryo-EM structure
[6] = target: T4, EV-D68 procapsid (strain STL-2014-12); assay: ELISA

| Binder | binding result [1] | stoichiometry N [2] [copies per particle] | binding result [3] | binding result [4] | binding result [5] | binding result [6] |
| --- | --- | --- | --- | --- | --- | --- |
| Fab 15C5 (Fab, V domains shown) VH: QVQLQQSGTELAKPGASVKMSCKASGYTFTNYWMHWFKQRPGQGLEWIGYVNPNTDYTDYNHKFKDKATLTADKSSSTAYMQLSSLTSEDSAVYFCARGTFGNYASFAYWGQGTLV VL: DIQMIQSPSSMFASLGDRVSLSCRASQDIRGNLDWYQQKPGGTIKLLIYSTSNLNSGVPSRFSGSGSGSDYSLTISSLESEDFADYYCLQRNAYPLTFGGGTKLEIK | binds | 60 | binds | binds | – | – |
| Fab 11G1 (Fab, V domains shown) VH: QVQLQQSGAELVRPGVSVKISCKGSGYIFTDYVMHWVKQSHSKSLEWIGVISTYYGDGSYNQKFKGKATMTVDKSSSTAYMELARLTSEDSAIYYCVRGENYYGVSGTMDYWGQGTSVTVSS VL: DIVMSQSPSSLAVSVGEKVTMSCKSSQSLLYSNNQKNYLAWYQQKPGQSPQLLIYWASTRESGVPDRFTGSESGTDFTLTISSVKAEDLAVFYCQQYYNYPWTFGGGTKLEIK | – | 60 | – | – | binds | – |
| monoclonal antibody 15C5 (antibody, V domains shown) VH: QVQLQQSGTELAKPGASVKMSCKASGYTFTNYWMHWFKQRPGQGLEWIGYVNPNTDYTDYNHKFKDKATLTADKSSSTAYMQLSSLTSEDSAVYFCARGTFGNYASFAYWGQGTLV VL: DIQMIQSPSSMFASLGDRVSLSCRASQDIRGNLDWYQQKPGGTIKLLIYSTSNLNSGVPSRFSGSGSGSDYSLTISSLESEDFADYYCLQRNAYPLTFGGGTKLEIK | – | – | – | – | – | binds |
